We go through five molecules from patent US11285274B2, “Methods for the systemic delivery of therapeutic agents to the pulmonary system using a droplet delivery device” (PNEUMA RESPIRATORY, INC., priority 2016, dated 2022).

Data set [1] in a line: Size exclusion chromatography (SEC) stability after aerosol generation with test device. The data set is classed as physicochemical. To be noted: for Peak Area %, Peak 1 / Peak Area %, Peak 2 / Peak Area %, Peak 3: Insulin (Humalog Kwikpen 200 U/ml). From the text:
Alternately, to determine the stability of active agent after droplet generation, the generated stream of droplets including the active agent may be collected and […] may be employed to monitor for any changes in large molecule aggregation and protein fragment content. Soluble protein aggregates and protein fragment content may be calculated by comparing respective peak area under the SEC-HPLC curve of dispensed protein solutions with controls (solutions remaining in the device reservoir). Drug solutions for testing include Enbrel, (ENBREL® single-use prefilled syringes in 25 mg (0.51 mL of a 50 mg/mL solution of etanercept), and insulin, (Humalog, 200 units/ml, 3 ml […] is performed with a YarraTM 3 um SEC-2000 LC column 300×7.8 mm, SecurityGuard cartridge kit and SecurityGuard cartridges GFC-2000, 4×3 mm ID. Fifty microliters of Enbrel from the syringe (ENBREL® single-use prefilled syringes in 25 mg/0.51 mL of a 50 mg/mL solution of etanercept) is diluted (4:1) (4 parts, 200 mcl of the mobile phase buffer solution to 1 part, 50 mcl Enbrel from syringe). Fifty microliter of the diluted Enbrel is injected and separation was performed at a flow rate of 1.0 ml/min. The mobile phase buffer system included a PHOS. BUFF. SALINE. […] UV detection is performed at 280 nm. […] Aerosol collection and SEC is performed in a similar fashion as for the Enbrel analysis and aerosol collection. […] Fifty microliters of the collected aerosol spray is injected onto the SEC column for analysis, while 50 mcl of the […] insulin solution is injected onto the SEC column for control samples.
In general terms: Size exclusion chromatography separates by hydrodynamic size, large species first.

Data set [2] is described as follows: Gel electrophoresis of active agent after droplet generation. Type of data set: physicochemical. From the text: To determine the stability of active agent after droplet generation, the generated stream of droplets including the active agent is collected and the molecular weight of the active agent is verified using gel electrophoresis.
Data set [3] deals with patients with cystic fibrosis. The conditions noted are these: cited from earlier work.
The mark [4] stands for this setting: aerosolized with test device (20 actuations), SEC.
Setting [5] is: Insulin aerosolized with test device.
Where [6] appears, read: Enbrel aerosolized with test device.
Setting [7] is: Enbrel aerosolized, average of S1 and S2.
The mark [8] stands for this setting: Enbrel diluted 4:1 (10 mg/ml), control (not aerosolized), SEC, UV 280 nm.

Where “and” joins values, the source holds several entries; their conditions need not be identical. Equal values may be shown once.

Turning to Insulin, in data set [1] (setting [4]), the “Peak Area %, Peak 1” value is 27.881% and 28.721%; the “Peak Area %, Peak 2” value is 69.780% and 67.807%; the “Peak Area %, Peak 3” value was 2.184% and 2.797%. In data set [1] (control (not aerosolized), SEC), the “Peak Area %, Peak 1” value is recorded as 29.926%; the “Peak Area %, Peak 2” value was found to be 69.630%; the “Peak Area %, Peak 3” value came out at 0%. Also, in data set [1] (setting [5]), the “fraction of the ejected dose forming a fragment which elutes at ~25 minutes” value turned out to be 2.5% and the “fraction of the ejected dose structurally unchanged” value came to 97.5%. In addition, the “Peak Area %, Peak 3, Avg.” value in data set [1] (Insulin aerosolized, average of S1 and S2) was 2.4905%.

For bevacizumab, in data set [2], the “change in electrophoretic mobility (molecular weight) of post-aerosol active agent from control” value (“change in electrophoretic mobility” for short) was “negligible change”.

Take `NC[C@H]1O[C@H](O[C@H]2[C@H](O)[C@@H](O[C@H]3O[C@H](CO)[C@@H](O)[C@H](N)[C@H]3O)[C@H](N)C[C@@H]2N)[C@H](N)C[C@@H]1O` [tobramycin]: in data set [3] (administration by inhalation), the “pulmonary function and kidney side effects” value is “significantly improves pulmonary function without severe side effects to kidney functions”. In data set [3] (intravenous administration), the “serum levels and kidney toxicity” value was “very high serum levels that are toxic to the kidneys”.

Regarding adalimumab, the “change in electrophoretic mobility” value in data set [2] is “negligible change”.

Consider etanercept [Enbrel], for which the “change in electrophoretic mobility” value in data set [2] was “negligible change”. For the same molecule, in data set [1] (setting [6]), the “fraction of the dose forming molecular fragments with elution times of 13 and 25 minutes” value came out at 4.6%; the “fraction structurally unchanged after delivering an aerosol dose” value came out at 95.4%. For the same molecule, in data set [1] (setting [7]), the “Peak Area %, Peak 4, Avg.” value was determined as 0.3545% and the “Peak Area %, Peak 5, Avg.” value amounted to 4.2755%. Besides, in data set [1] (setting [8]), the “Peak Area %, Peak 4” value was found to be 0% and the “Peak Area %, Peak 5” value is 0%.
